From patent US20250312416A1, “METHOD AND PHARMACEUTICAL COMPOSITION FOR CARTILAGE REGENERATION” (FAR EASTERN MEMORIAL HOSPITAL, priority 2024, published 2025)

Legend:
[1] = tested on: tibial articular cartilage of WT mice after ACLT; assay: ACLT-induced OA mouse model, Safranin O / collagen II staining and OARSI score (CXCL14 protein); type: in vivo; conditions: for OARSI score: ACLT group 5.5, sham group 0.17
[2] = tested on: IPFP-MSC from OA patients; assay: Alcian blue staining of chondrogenic pellets (GAG), IPFP-MSC; type: cell-based, human; conditions: IPFP-MSC during chondrogenesis, day 3
Protocol: (§1) The GSE140861 microarray database was used for analyzing the potential genes from human bone marrow cells at different time points during chondrogenesis. Whole-genome expression analysis was carried out using Illumina (CA) Human Ref-8v3 or Human HT-12 v4 BeadArrays™. It was first selected the secreted protein from this database and further verified the functions of the candidate genes. The numbers of significant differences in gene expressions of different time points from human bone marrow stem cells during chondrogenesis. […] Alcian blue staining analyzed the chondrogenic differentiation of pellets with varying ratios of IPFP-MSC. CXCL14 increased the GAG deposition in IPFP-MSC during chondrogenesis on day 3. FIG. 1C provides the fluorescence confocal microscopy images showing IPFP-MSC spheroids from OA patients treated with CXCL14 for 7 days; wherein the nuclei were stained with DAPI (blue), and merged images display SOX9 (red), type II collagen (green), and aggrecan (light blue) labeling. […] The chondrogenic progenitor cells in the human IPFP-MSC from OA patients were detected using SOX9 and Collagen type II biomarkers. MSCs were assessed by flow cytometry for SOX9 and Collagen type II biomarkers indicative of human MSCs on day 1. In addition, Alcian blue staining analyzed the chondrogenic differentiation of pellets with IPFP-MSC. […]

[3] = tested on: IPFP-MSC spheroids from OA patients; assay: Fluorescence confocal microscopy of IPFP-MSC spheroids (SOX9, type II collagen, aggrecan); type: cell-based, human; conditions: MSC spheroids during chondrogenesis, 7 days
Protocol: as §1

ADSC spheroids = assay: Immunofluorescence / confocal microscopy of chondrogenic proteins in ADSC spheroids; type: cell-based, human; conditions: ADSC spheroids, 7 days
Protocol: Both side views (observed in the x and z plane) and bottom views (observed in the […]) of the images are provided. The scale bar is set at 500 μm.
ADSCs were treated with CXCL14-P, CXCL14-P1, or CXCL14-P2, respectively, at a concentration of 10 ng for 24 hours, after which the medium was replaced with fresh peptide-free medium. On day 7, total RNA was extracted, and real-time PCR analysis was performed to assess the expression levels of key chondrogenic markers, including ACAN, COL2A1, SOX9, and COMP. Gene expression levels were quantified using a LightCycler system (Roche Applied Science), with fold changes calculated relative to untreated control ADSCs. […] Immunofluorescence staining was performed to detect Collagen Type II, SOX9, COMP, and nuclei (Hoechst 33342) in 3D ADSC spheroids (middle panel).
(FIG. 3). […] Moreover, fluorescence confocal microscopy was employed to detect protein patterns and confirm the levels of SOX9, type II collagen, and aggrecan proteins in ADSC spheroids. […] Finally, to investigate whether the CXCR4 receptor of CXCL12/CXCL14 confers chondrogenic signaling during chondrogenesis, we treated ADSCs with a CXCR4 agonist for 7 days.
Extracellular vesicles (EVs) derived from MSCs hold significant potential for repairing damaged tissues. In this study, we explored whether EVs from ADSCs could effectively enhance chondrogenesis and promote cartilage repair. Immunofluorescence staining was used to assess protein levels of Collagen Type II (green), SOX9 (red), COMP (indigo), and Hoechst 33342 (gray) in 3D ADSC spheroids treated with MSC-EVs derived from CXCL14 peptide-primed ADSCs (CXCL14-P-MSC-EVs) at various time points. […] To further explore the cartilage repair functions of EVs from CXCL14-P-treated ADSCs and the encapsulation of the transcription factor SOX9 within MSCs and purified EVs, we performed in vivo studies.

B1: CXCL14: small cytokine belonging to the CXC chemokine family, also known as BRAK; used as recombinant protein (protein, UniProt O95715 35-111, looked up)
C-X-C motif chemokine 14: SKCKCSRKGPKIRYSDVKKLEMKPKYPHCEEKMVIITTKSVSRYRGQEHCLHPKLQSTKRFIKWYNAWNEKRRVYEE
[1]; CXCL14 10 ng
  OARSI score: 2.7
[1]; CXCL14 20 ng
  OARSI score: 1
[1]; dose-dependent, ACLT-induced OA
  cartilage repair (staining GAG content and type II collagen): can stimulate cartilage repair
[2]
  GAG deposition (Alcian blue): increased
[3]
  levels of SOX9, type II collagen, and aggrecan: elevated levels
ADSC spheroids
  expression of SOX9, type II collagen, and aggrecan: notably induced
